The results in this text go back to paper PMC12709188, “Expanding the CarD interaction network: CrsL is a novel transcription regulator in actinobacteria” (Nucleic Acids Research, 2025).

B1: CarD–NT (in vitro purified CarD) (natural protein, M. smegmatis, UniProt A0R561 1-162, looked up)
chain: MIFKVGDTVVYPHHGAALIEAIETRTIKGEQKEYLVLKVAQGDLTVRVPADNAEYVGVRDVVGQEGLDKVFQVLRAPHTEEPTNWSRRYKANLEKLASGDVNKVAEVVRDLWRRDQERGLSAGEKRMLAKARQILVGELALAENTDDAKAETILDEVLAAAS
notes: CarD, transcription factor of M. smegmatis; dimer when alone (native gel); Uniformly 13C,15N-labelled for some NMR samples; also called [^13C,^15N]-CarD; source: E. coli (strain LK3209), purified (Ni-NTA, TEV protease cleavage; for NMR also Superdex 75)
B2: CrsL–His (in vitro purified CrsL) (natural protein, M. smegmatis, UniProt A0R4M8 1-54, looked up)
chain: MPAKTDPADLGDVEPLADDTASQARRVVATYATDADECRMFLSMLGIGPSKTEV
notes: CrsL, small protein (predicted MW 5.7 kDa) encoded by MSMEG_5890 of M. smegmatis; 15N- or 13C,15N-labelled for NMR; also called [^15N]-CrsL; [^13C,^15N]-CrsL; source: E. coli (strain LK3499), purified (Ni-NTA, Superdex 75; for NMR Superdex 30)

Data set [1] concerns the molecule itself. Kind of data set: native gel or EMSA; purified CrsL, CarD and DnaK mixed in 1× STB buffer (50 mM Tris–HCl pH 8.0, 5 mM Mg acetate, 100 μM DTT, 50 mM KCl, 50 μg/ml BSA), 37°C 15 min; 8% native gel at 4°C; Coomassie stain, bands confirmed by mass spectrometry.
For data set [2], the target named is B1. In words: ITC; 27.6 μM CarD in the cell titrated by 315 μM CrsL; 27°C; 50 mM Tris–HCl, 100 mM NaCl, 0.5 mM DTT, pH 7.5; one-site binding model; triplicate. Conditions: both partners purified. On the technique in general: Isothermal titration calorimetry measures the heat released or taken up as one component is titrated into another.

Values joined by “and” are separate entries in the source; they are usually repeats but may differ in a detail not shown here. Identical values can stand only once.

Regarding B1, the stoichiometry N – broadly, a count of units in the complex or per binding partner – in data set [1] turned out to be 2.
Regarding B2, in data set [2], the dissociation constant (Kd) (usually the constant that tells how readily two partners part at equilibrium) was 4.3 nM and 4.5 nM and 3.3 nM; the dH is -87.9 kJ/mol; the “stoichiometry N” value stood at 1.
